Blank lines part the entries; values can stand above or below the binder they belong to.
B1: human ICOSL (inducible co-stimulator ligand), full-length, isoform 1, N-terminal His-tag (ligand, not shown: small tags and cut ends)
chain: DTQEKEVRAMVGSDVELSCACPEGSRFDLNDVYVYWQTSESKTVVTYHIPQNSSLENVDSRYRNRALMSPAGMLRGDFSLRLFNVTPQDEQKFHCLVLSQSLGFQEVLSVEVTLHVAANFSVPVVSAPHSPSQDELTFTCTSINGYPRPNVYWINKTDNSLLDQALQNDTVFLNMRGLYDVVSVLRIARTPSVNIGCCIENVLLQQNLTVGSQTGNDIGERDKITENPVSTGEKNAAT
notes: The reagent list also names a bought human ICOSL-His Tag (Thermo Fisher 11559H08H50); also called hICOSL; B7h

Legend:
[1] = molecular target: recombinant human integrin αvβ5 (R&D Systems, 2528-AV) (human, UniProt P06756 31-992; P18084 24-719); assay: SPR, ICOSL immobilised, integrin as analyte
Chain of recombinant human integrin αvβ5 (R&D Systems, 2528-AV) (P06756 31-992 limits assumed, chain 1 of 2): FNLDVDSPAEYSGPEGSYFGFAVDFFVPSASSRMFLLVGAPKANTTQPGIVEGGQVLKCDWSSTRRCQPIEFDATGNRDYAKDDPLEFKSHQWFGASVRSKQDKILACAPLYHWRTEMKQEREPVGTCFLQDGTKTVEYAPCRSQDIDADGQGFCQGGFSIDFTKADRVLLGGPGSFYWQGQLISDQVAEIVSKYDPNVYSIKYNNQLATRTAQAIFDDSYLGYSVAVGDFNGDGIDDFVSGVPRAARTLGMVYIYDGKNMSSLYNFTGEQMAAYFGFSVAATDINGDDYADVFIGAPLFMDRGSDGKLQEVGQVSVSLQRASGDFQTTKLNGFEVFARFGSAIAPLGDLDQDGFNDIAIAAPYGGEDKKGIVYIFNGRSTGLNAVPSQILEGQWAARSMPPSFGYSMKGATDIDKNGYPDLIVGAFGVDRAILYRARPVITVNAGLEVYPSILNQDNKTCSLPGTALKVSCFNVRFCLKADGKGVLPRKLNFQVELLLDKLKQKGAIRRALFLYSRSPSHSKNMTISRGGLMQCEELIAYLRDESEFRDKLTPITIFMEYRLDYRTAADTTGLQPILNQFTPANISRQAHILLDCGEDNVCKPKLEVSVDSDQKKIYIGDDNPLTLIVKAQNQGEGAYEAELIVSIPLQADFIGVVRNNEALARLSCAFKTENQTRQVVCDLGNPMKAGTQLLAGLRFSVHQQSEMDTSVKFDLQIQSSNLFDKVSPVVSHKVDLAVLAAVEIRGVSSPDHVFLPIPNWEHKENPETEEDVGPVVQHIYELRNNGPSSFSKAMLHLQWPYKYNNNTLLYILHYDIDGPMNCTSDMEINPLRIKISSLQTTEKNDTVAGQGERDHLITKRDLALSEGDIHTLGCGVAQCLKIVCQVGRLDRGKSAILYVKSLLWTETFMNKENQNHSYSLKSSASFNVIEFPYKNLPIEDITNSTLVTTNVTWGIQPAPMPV
Chain of recombinant human integrin αvβ5 (R&D Systems, 2528-AV) (P18084 24-719 limits assumed, chain 2 of 2): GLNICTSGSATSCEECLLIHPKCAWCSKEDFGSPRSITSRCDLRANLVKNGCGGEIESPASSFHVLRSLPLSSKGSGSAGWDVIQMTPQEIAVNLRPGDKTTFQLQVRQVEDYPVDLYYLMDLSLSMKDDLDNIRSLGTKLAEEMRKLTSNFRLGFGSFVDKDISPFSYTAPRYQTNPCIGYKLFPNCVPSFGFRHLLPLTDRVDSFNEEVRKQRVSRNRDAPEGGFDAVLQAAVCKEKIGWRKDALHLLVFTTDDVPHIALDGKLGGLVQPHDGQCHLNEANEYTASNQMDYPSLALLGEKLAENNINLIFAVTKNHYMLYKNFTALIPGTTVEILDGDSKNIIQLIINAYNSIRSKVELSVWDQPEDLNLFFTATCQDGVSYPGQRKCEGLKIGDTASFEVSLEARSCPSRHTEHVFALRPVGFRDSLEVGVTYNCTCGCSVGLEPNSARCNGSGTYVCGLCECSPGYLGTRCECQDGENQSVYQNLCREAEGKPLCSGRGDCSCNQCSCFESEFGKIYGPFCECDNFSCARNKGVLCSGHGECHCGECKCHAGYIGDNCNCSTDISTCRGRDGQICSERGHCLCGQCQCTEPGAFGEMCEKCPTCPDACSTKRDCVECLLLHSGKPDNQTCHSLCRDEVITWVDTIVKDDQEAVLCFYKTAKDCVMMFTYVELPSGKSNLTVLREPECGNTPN

[2] = molecular target: T1, recombinant human integrin αIIbβ3 (R&D Systems, 7148-A2) (human, UniProt P08514 32-993; P05106 27-718); assay: SPR, ICOSL immobilised, integrin as analyte
T1 construct: also called αllbβ3
T1 sequence (P08514 32-993 limits assumed, chain 1 of 2): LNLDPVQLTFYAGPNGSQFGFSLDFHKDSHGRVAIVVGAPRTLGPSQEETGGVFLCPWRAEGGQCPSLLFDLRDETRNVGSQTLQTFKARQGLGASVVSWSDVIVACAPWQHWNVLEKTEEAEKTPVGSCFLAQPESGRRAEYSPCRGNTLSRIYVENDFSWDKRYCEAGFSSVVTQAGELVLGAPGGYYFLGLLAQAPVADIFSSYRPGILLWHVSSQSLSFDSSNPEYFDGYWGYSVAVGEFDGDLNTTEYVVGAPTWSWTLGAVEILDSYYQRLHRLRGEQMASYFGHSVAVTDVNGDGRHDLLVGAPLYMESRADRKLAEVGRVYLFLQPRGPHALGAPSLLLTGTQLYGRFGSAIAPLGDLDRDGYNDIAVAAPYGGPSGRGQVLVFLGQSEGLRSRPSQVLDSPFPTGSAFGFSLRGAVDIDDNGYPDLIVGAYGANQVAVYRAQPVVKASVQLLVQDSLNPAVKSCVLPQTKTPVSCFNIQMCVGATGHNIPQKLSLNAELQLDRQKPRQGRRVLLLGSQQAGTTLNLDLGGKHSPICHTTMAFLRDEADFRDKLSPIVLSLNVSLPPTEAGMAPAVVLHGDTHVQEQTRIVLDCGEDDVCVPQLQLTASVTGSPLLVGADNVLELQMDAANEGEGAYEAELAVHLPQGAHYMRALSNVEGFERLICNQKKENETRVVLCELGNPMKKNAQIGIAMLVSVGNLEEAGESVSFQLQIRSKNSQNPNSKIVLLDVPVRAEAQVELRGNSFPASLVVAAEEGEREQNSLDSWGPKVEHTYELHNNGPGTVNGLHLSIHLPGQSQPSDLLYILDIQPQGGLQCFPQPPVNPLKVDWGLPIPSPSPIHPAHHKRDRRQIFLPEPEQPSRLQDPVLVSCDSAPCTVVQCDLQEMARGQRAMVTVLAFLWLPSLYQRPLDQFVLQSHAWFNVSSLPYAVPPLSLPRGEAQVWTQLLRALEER
T1 sequence (P05106 27-718 limits assumed, chain 2 of 2): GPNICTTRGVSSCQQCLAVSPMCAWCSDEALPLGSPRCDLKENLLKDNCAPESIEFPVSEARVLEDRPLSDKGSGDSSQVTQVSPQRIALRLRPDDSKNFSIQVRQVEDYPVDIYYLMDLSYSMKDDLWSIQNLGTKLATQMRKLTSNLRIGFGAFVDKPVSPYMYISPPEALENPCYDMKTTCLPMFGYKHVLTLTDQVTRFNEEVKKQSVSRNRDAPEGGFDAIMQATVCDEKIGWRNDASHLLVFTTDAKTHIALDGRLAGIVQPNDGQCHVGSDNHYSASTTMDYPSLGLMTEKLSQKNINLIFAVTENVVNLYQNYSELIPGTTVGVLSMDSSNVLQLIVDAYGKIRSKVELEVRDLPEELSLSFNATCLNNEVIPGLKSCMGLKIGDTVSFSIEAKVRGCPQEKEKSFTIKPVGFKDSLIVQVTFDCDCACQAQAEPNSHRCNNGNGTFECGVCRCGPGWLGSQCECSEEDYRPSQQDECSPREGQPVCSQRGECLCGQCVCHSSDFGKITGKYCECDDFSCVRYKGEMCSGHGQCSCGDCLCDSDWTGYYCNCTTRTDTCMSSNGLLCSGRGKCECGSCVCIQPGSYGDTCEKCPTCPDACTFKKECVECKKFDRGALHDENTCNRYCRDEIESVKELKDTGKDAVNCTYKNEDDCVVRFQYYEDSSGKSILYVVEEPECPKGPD

[3] = molecular target: T2, recombinant human integrin αvβ3 (R&D Systems, 3050-AV) (human, UniProt P06756 31-992; P05106 27-718); assay: SPR, ICOSL immobilised, inactive αvβ3 (EDTA, no Mn2+), steady-state affinity fit
T2 construct: Analyte in SPR; also called αvβ3 integrin
T2 sequence (P06756 31-992 limits assumed, chain 1 of 2): as the sequence (P06756 31-992 limits assumed, chain 1 of 2) above
T2 sequence (P05106 27-718 limits assumed, chain 2 of 2): as the sequence (P05106 27-718 limits assumed, chain 2 of 2) above

[4] = molecular target: T2, recombinant human integrin αvβ3 (R&D …); assay: SPR (Biacore T200), ICOSL immobilised on CM5, αvβ3 as analyte, Mn2+ (active integrin), kinetic 1:1 Langmuir fit (kd/ka)
[5] = molecular target: B1; assay: SPR
[6] = molecular target: T2, recombinant human integrin αvβ3 (R&D …); assay: SPR, Mn2+ (active integrin)
[7] = molecular target: T3, recombinant mouse integrin αvβ3 (R&D Systems, 7889-AV-050) (mouse, UniProt P43406 31-988; O54890 26-717); assay: SPR, ICOSL immobilised, αvβ3 as analyte, 0.2 mM Ca2+ and 0.1 mM Mg2+, kinetic 1:1 fit
T3 construct: also called mouse αvβ3 integrin
T3 sequence (P43406 31-988 limits assumed, chain 1 of 2): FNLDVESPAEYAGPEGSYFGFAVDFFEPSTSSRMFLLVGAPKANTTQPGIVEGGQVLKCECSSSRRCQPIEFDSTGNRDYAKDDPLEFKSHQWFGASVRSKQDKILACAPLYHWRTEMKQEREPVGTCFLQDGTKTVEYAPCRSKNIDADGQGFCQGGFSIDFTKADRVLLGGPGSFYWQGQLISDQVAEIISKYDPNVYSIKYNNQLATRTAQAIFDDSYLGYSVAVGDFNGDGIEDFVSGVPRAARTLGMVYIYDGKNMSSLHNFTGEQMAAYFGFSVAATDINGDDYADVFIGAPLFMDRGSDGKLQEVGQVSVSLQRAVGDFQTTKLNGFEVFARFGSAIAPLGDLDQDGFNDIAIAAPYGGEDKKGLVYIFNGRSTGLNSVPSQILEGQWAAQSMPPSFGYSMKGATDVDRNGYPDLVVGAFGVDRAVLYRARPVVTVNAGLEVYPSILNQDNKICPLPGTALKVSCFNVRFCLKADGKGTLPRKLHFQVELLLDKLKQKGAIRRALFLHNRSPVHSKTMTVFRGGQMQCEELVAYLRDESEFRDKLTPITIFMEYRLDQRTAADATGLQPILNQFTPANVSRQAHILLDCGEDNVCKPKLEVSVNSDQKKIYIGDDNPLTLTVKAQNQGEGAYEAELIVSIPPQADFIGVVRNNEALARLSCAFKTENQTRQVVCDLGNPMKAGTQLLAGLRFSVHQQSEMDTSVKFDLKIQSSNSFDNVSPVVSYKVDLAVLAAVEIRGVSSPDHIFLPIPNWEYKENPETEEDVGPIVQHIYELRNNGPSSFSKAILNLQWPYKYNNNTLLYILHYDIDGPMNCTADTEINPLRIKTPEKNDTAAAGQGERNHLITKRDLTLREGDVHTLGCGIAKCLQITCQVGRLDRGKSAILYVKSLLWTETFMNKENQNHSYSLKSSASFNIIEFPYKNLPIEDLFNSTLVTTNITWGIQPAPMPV
T3 sequence (O54890 26-717 limits assumed, chain 2 of 2): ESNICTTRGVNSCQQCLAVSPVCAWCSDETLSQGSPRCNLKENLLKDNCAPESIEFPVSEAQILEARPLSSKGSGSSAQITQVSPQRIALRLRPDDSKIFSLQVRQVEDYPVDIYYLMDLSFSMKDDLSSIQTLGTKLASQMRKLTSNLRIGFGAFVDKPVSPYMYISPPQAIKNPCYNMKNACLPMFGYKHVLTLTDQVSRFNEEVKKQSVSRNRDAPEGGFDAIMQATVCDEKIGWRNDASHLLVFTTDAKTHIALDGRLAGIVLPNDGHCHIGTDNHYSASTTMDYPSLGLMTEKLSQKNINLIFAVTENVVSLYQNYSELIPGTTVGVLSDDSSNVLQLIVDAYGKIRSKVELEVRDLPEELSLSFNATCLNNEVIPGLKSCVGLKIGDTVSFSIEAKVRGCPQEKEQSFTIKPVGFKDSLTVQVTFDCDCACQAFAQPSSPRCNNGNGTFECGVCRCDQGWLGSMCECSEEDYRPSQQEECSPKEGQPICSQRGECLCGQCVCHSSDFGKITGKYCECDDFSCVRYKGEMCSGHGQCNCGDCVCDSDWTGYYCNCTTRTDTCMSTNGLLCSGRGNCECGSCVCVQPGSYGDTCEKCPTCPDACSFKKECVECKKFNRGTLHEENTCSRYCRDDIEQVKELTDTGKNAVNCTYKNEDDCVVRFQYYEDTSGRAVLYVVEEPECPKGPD

[8] = molecular target: T3, recombinant mouse integrin αvβ3 (R&D …); assay: SPR, ICOSL immobilised, αvβ3 as analyte, 2 mM Ca2+ and 1 mM Mg2+ (inactive integrin)
[9] = molecular target: T3, recombinant mouse integrin αvβ3 (R&D …); assay: SPR, ICOSL immobilised, inactive αvβ3 (EDTA, no Mn2+), steady-state affinity fit
[10] = molecular target: T3, recombinant mouse integrin αvβ3 (R&D …); assay: SPR (Biacore T200), ICOSL immobilised on CM5, αvβ3 as analyte, Mn2+ (active integrin), kinetic 1:1 Langmuir fit (kd/ka)

Binder: B1
binding result [1]: no binding
binding result [2]: no binding
Kd [3]: 0.412 µM
Kd [4]: 0.0162 µM

B4: mouse ICOSL, wild type (RGD), full-length, N-terminal His-tag (ligand, not shown: small tags and cut ends)
chain: ETEVGAMVGSNVVLSCIDPHRRHFNLSGLYVYWQIENPEVSVTYYLPYKSPGINVDSSYKNRGHLSLDSMKQGNFSLYLKNVTPQDTQEFTCRVFMNTATELVKILEEVVRLRVAANFSTPVISTSDSSNPGQERTYTCMSKNGYPEPNLYWINTTDNSLIDTALQNNTVYLNKLGLYDVISTLRLPWTSRGDVLCCVENVALHQNITSISQAESFTGNNTKNPQETHNNE
notes: also called mICOSL; WT mICOSL
Kd [7]: 0.0213 µM
Kd [8]: 0.4 µM
Kd [9]: ≥ 2000 µM
Kd [10]: 0.0242 µM

The remaining lines, values ahead:

Kd [5]: 0.005 µM
B2: recombinant human ICOS (R&D Systems, 169-CS) (receptor, UniProt Q9Y6W8 21-141, looked up)
chain: EINGSANYEMFIFHNGGVQILCKYPDIVQQFKMQLLKGGQILCDLTKTKGSGNTVSIKSLKFCHSQLSNNSVSFFLYNLDHSHANYYFCNLSIFDPPPFKVTLTGGYLHIYESQLCCQLKF

binding result [6]: no binding
B3: recombinant human B7.1 (R&D Systems, 140-B1) (ligand, UniProt P33681 35-242, looked up)
chain: VIHVTKEVKEVATLSCGHNVSVEELAQTRIYWQKEKKMVLTMMSGDMNIWPEYKNRTIFDITNNLSIVILALRPSDEGTYECVVLKYEKDAFKREHLAEVTLSVKADFPTPSISDFEIPTSNIRRIICSTSGGFPEPHLSWLENGEELNAINTTVSQDPETELYAVSSKLDFNMTTNHSFMCLIKYGHLRVNQTFNWNTTKQEHFPDN
notes: also called RGD-lacking B7.1

Reference: patent publication US20210208163A1 (RUSH UNIVERSITY MEDICAL CENTER, published 2021)
